Assay [1] concerns the target T1, human prostate specific membrane antigen (PSMA), full-length, on cells (human, UniProt Q04609 1-750). The experiment in a line: cell-based or functional assay.
The target of assay [2] is T1, human prostate specific membrane …. Briefly: cell-based or functional assay. This is another data set of the same source.
Assay [3] has as its target T2, cynomolgus PSMA, full-length, on CHO cells (cynomolgus, UniProt A0A2K5VNZ0 1-750). Briefly: cell-based or functional assay.
The target of assay [4] is T1, human prostate specific membrane …. The experiment in a line: FMAT direct cell binding, LNCap cells.
The target is the same in assay [5]. Briefly: FMAT direct cell binding, DU145 PSMA cells.
The target in assay [6] is T2, cynomolgus PSMA, full-length, on CHO …. Briefly: FMAT direct cell binding, CHO cyno PSMA cells.
The target of assay [7] is T1, human prostate specific membrane …. The experiment in a line: FMAT direct cell binding, CHO human PSMA cells.
Assay [8] deals with T3, recombinant human PSMA (R&D, cat. no. 4234-ZN) (human, UniProt Q04609 44-750).
T3 construct: Bought protein; also called rhPSMA; Recombinant PMSA
T3 sequence (Q04609 44-750 limits assumed): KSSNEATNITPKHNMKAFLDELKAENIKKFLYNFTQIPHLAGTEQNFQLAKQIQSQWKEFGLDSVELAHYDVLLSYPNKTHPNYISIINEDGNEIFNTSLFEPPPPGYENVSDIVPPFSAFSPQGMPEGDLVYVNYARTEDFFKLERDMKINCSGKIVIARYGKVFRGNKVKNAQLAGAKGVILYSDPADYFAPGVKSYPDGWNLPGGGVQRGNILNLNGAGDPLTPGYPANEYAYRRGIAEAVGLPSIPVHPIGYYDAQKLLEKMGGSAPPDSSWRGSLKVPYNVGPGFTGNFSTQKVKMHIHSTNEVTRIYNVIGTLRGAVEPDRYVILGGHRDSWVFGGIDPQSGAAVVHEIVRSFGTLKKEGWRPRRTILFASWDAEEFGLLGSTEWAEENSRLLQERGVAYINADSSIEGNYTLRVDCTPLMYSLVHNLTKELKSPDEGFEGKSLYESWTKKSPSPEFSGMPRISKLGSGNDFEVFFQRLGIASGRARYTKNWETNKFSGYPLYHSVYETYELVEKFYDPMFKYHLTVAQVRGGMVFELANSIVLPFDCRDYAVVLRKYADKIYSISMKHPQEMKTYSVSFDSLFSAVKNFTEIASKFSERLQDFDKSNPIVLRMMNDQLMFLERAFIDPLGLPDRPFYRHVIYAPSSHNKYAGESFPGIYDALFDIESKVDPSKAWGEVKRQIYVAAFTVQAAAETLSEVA
Briefly: Octet RED384 BLI, PSMA on sensor, VH series from 0.375 ug/ml. In general terms: In BLI a coated tip is dipped into the sample, and binding shifts an interference pattern.

The target in assay [9] is T1, human prostate specific membrane …. The experiment in a line: FMAT cell binding, huPSMA CHO 1A10 cells, after 1 day in human serum at 37 C.
For assay [10] the target is unchanged. Briefly: FMAT cell binding, huPSMA CHO 1A10 cells, after 0 days in human serum at 37 C.
Assay [11] shares this target. Briefly: FMAT cell binding, huPSMA CHO 1A10 cells, after 4 days in human serum at 37 C.
For assay [12] the target is unchanged. The experiment in a line: FMAT cell binding, huPSMA CHO 1A10 cells, after 7 days in human serum at 37 C.
Assay [13] has the same target. Briefly: FMAT direct cell binding, human PSMA-CHO cells.
Assay [14] has the same target. The experiment in a line: FMAT cell binding, huPSMA CHO cells, after 1 day in human serum at 37 C.
The target is the same in assay [15]. The experiment in a line: FMAT cell binding, huPSMA CHO cells, after 0 days in human serum at 37 C.
Assay [16] has the same target. The experiment in a line: FMAT cell binding, huPSMA CHO cells, after 4 days in human serum at 37 C.
Assay [17] shares this target. The experiment in a line: FMAT cell binding, huPSMA CHO cells, after 7 days in human serum at 37 C.
Assay [18] deals with T2, cynomolgus PSMA, full-length, on CHO …. The experiment in a line: FMAT Mirrorball direct cell binding, purified His-tagged VH titrated on CHO cells expressing cynomolgus PSMA, FL2 median binding signal [panel cynoPSMA-CHO binding].
Assay [19] concerns the target T1, human prostate specific membrane …. The experiment in a line: cell-based or functional assay. This is another data set of the same source.
Assay [20] has the same target. The experiment in a line: cell-based or functional assay. This is another data set of the same source.

The values below come from US20200131274A1 (CRESCENDO BIOLOGICS, published 2020).

A word on the EC50: it is the concentration that produces a half-maximal response. A higher EC50 goes with weaker potency. In general, Kd refers to a measure of binding affinity in units of concentration. As a reminder, the koff is the first-order rate constant of dissociation. Broadly, the EC50 (read off the curve) is the concentration at which the effect is half-maximal. A low value points to a more potent agent.

T1 sequence (Q04609 whole entry): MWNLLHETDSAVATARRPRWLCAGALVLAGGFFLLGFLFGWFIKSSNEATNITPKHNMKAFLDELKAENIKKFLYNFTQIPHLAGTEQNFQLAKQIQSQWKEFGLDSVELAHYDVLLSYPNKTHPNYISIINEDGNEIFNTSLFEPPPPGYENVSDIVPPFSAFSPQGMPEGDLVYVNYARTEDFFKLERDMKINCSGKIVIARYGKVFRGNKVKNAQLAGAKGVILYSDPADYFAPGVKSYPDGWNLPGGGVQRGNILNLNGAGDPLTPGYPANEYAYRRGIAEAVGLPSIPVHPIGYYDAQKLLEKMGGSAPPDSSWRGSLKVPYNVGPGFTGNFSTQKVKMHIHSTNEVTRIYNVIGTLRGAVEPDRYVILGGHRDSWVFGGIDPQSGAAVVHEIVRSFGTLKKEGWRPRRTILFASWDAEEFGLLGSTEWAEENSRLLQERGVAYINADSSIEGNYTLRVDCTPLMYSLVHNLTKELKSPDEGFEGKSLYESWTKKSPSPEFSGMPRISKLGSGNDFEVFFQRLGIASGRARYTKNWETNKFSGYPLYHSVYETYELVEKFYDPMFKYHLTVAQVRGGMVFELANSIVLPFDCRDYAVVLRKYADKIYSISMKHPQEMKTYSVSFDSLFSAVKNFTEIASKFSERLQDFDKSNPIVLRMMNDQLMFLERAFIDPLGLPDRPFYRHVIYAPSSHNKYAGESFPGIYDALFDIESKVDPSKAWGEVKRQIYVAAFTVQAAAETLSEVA

B1: single VH domain antibody 1.11 (VHH)
VHH: EVQLLESGGGLVQPGGSLRLSCAASGFSFSSYALSWVRQAPGKGLEWVSSIGENNDTTDYADNVKGRFTISRDNSKNTLYLQMNSLRVEDTAVYYCVKDGVHWGQGTLVTVSS
notes: Human single VH domain antibody (Humabody)
Take B1: the “pHrodo Green internalization assay, human PSMA Average EC50 (M)” value (from here on “pHrodo Green internalization assay”) in assay [1] was 3.7e-10 M. Also, in assay [2], the “His-ZAP cell killing, human PSMA Average EC50” value is 0.014 nM. For the same molecule, the “His-ZAP cell killing, cyno PSMA EC50” value in assay [3] is 0.41 nM. Moreover, the EC50 in assay [4] came out at 0.119 nM; in assay [5], 0.076 nM; in assay [6], 0.217 nM; in assay [7], 0.0863 nM; in assay [9], 0.208 nM; in assay [10], 0.234 nM. Besides, the EC50 in assay [11] turned out to be 0.227 nM; in assay [12], 0.278 nM. Also, the Kd in [8] turned out to be 0.8 nM. The koff in [8] came out at 0.000495 s⁻¹.

B2: single VH domain antibody 1.18 (VHH)
VHH: EVQLLESGGGLVQPGGSLRLSCAASGFSFSSYALSWVRQAPGKGLEWVSSIGENNATTDYAASVKGRFTISRDNSKNTLYLQMNSLRVEDTAVYYCVKDGVHWGQGTLVTVSS
notes: as for B1
In the case of B2, the “pHrodo Green internalization assay” value in assay [1] stood at 3.1e-10 M. Moreover, the “His-ZAP cell killing, human PSMA Average EC50” value in assay [2] worked out at 0.023 nM. In addition, in assay [3], the “His-ZAP cell killing, cyno PSMA EC50” value turned out to be 0.48 nM. Besides, the EC50 in [4] came to 0.0424 nM; in assay [5] it was 0.0495 nM; in assay [6], 0.124 nM; in [7], 0.0586 nM; in [9] it was 0.311 nM; in [10] it was 0.304 nM. The EC50 in assay [11] came out at 0.319 nM; in assay [12], 0.313 nM. Also, the Kd in assay [8] worked out at 0.59 nM. In [8], the koff came out at 0.000572 s⁻¹.

B3: single VH domain antibody 1.16 (VHH)
VHH: EVQLLESGGGLVQPGGSLRLSCAASGFSFSSYALSWVRQAPGKGLEWVSSIGENNHTTDYADTVKGRFTISRDNSKNTLYLQMNSLRVEDTAVYYCVKDGVHWGQGTLVTVSS
notes: as for B1
As to B3, in assay [1], the “pHrodo Green internalization assay” value worked out at 4.8e-10 M. Further, the “His-ZAP cell killing, human PSMA Average EC50” value in [2] came out at 0.017 nM. The “His-ZAP cell killing, cyno PSMA EC50” value in assay [3] was found to be 0.42 nM. In addition, the EC50 turned out to be 0.0754 nM in assay [4]; 0.0594 nM in assay [5]; 0.146 nM in assay [6]; 0.068 nM in assay [7]; 0.243 nM in assay [9]; 0.165 nM in assay [10]. In addition, the EC50 is 0.242 nM in assay [11] and 0.236 nM in assay [12]. Besides, the Kd in [8] was found to be 0.44 nM. For the same molecule, the off-rate constant (koff) in assay [8] is 0.000365 s⁻¹.

B4: 1.11-6GS-2.1 (bispecific antibody)
chain: EVQLLESGGGLVQPGGSLRLSCAASGFSFSSYALSWVRQAPGKGLEWVSSIGENNDTTDYADNVKGRFTISRDNSKNTLYLQMNSLRVEDTAVYYCVKDGVHWGQGTLVTVSSGGGGSGGGGSGGGGSGGGGSGGGGSGGGGSEVQLVESGGGVVQPGRSLRLSCAASGFSFSGYGMHWVRQAPGKGLEWVAYISYDGSNKYYADSVKGRFTISRDNSKNTLYLQMNSLRAEDTAVYYCAKDPAWGLRLGESSSYDFDIWGQGTMVTVSS
notes: linker (G4S)6; also called 1.11-2.1
Regarding B4, the “His-ZAP cell killing, human PSMA Average EC50” value in assay [2] is 0.017 nM. In assay [3], the “His-ZAP cell killing, cyno PSMA Average EC50” value is 0.012 nM. Further, the EC50 amounted to 0.287 nM in [13]; 0.0605 nM in assay [14]; 0.0892 nM in [15]; 0.0736 nM in assay [16]; 0.0865 nM in [17].

B5: 1.11-6GS-2.17 (bispecific antibody)
chain: EVQLLESGGGLVQPGGSLRLSCAASGFSFSSYALSWVRQAPGKGLEWVSSIGENNDTTDYADNVKGRFTISRDNSKNTLYLQMNSLRVEDTAVYYCVKDGVHWGQGTLVTVSSGGGGSGGGGSGGGGSGGGGSGGGGSGGGGSEVQLVESGGGVVQPGRSLRLSCAASGFSFSGYGMHWVRQAPGKGLEWVAYISYDASNKYYADNVKGRFTISRDNSKNTLYLQMNSLRAEDTAVYYCAKDPAWGLRLGESSSYDFDIWGQGTMVTVSS
notes: linker (G4S)6
Consider B5, for which the “His-ZAP cell killing, human PSMA Average EC50” value in assay [2] was found to be 0.0079 nM. The “His-ZAP cell killing, cyno PSMA Average EC50” value in assay [3] stood at 0.0081 nM. Moreover, the EC50 came to 0.281 nM in assay [13]; 0.0725 nM in assay [14]; 0.0639 nM in assay [15]; 0.0844 nM in assay [16]; 0.101 nM in assay [17].

B6: 1.16-6GS-2.1 (bispecific antibody)
chain: EVQLLESGGGLVQPGGSLRLSCAASGFSFSSYALSWVRQAPGKGLEWVSSIGENNHTTDYADTVKGRFTISRDNSKNTLYLQMNSLRVEDTAVYYCVKDGVHWGQGTLVTVSSGGGGSGGGGSGGGGSGGGGSGGGGSGGGGSEVQLVESGGGVVQPGRSLRLSCAASGFSFSGYGMHWVRQAPGKGLEWVAYISYDGSNKYYADSVKGRFTISRDNSKNTLYLQMNSLRAEDTAVYYCAKDPAWGLRLGESSSYDFDIWGQGTMVTVSS
notes: linker (G4S)6
Take B6: the “His-ZAP cell killing, human PSMA Average EC50” value in assay [2] turned out to be 0.014 nM. The “His-ZAP cell killing, cyno PSMA Average EC50” value in assay [3] was found to be 0.013 nM. Also, the EC50 in [13] came to 0.306 nM; in assay [14] it was 0.086 nM; in assay [15], 0.0902 nM; in assay [16], 0.1 nM; in assay [17], 0.107 nM.

B7: 1.16-6GS-2.17 (bispecific antibody)
chain: EVQLLESGGGLVQPGGSLRLSCAASGFSFSSYALSWVRQAPGKGLEWVSSIGENNHTTDYADTVKGRFTISRDNSKNTLYLQMNSLRVEDTAVYYCVKDGVHWGQGTLVTVSSGGGGSGGGGSGGGGSGGGGSGGGGSGGGGSEVQLVESGGGVVQPGRSLRLSCAASGFSFSGYGMHWVRQAPGKGLEWVAYISYDASNKYYADNVKGRFTISRDNSKNTLYLQMNSLRAEDTAVYYCAKDPAWGLRLGESSSYDFDIWGQGTMVTVSS
notes: linker (G4S)6
Regarding B7, the “His-ZAP cell killing, human PSMA Average EC50” value in assay [2] stood at 0.015 nM. The “His-ZAP cell killing, cyno PSMA Average EC50” value in assay [3] turned out to be 0.011 nM. Moreover, the EC50 stood at 0.333 nM in [13]; 0.0944 nM in assay [14]; 0.0741 nM in assay [15]; 0.0628 nM in [16]; 0.0675 nM in assay [17].

B8: 2.10 (VHH)
VHH: EVQLVESGGGVVQPGRSLRLSCAASGFTFSGYGMHWVRQAPGKGLEWVAYISYDGSNRYYADSVKGRFTISRDNSKKTLSLQMNSLRAEDTAVYYCAKDPAWGLRLGESSSYDFDIWGQGTMVTVSS
notes: On the sheet it is the filled up triangle; also called single VH domain antibody 2.10
As to B8, the “EC50 (read off the curve)” value in assay [18] is roughly 1 nM.

B9: HiPEG D-His6 val-cit-PAB-MMAE (VHH)
VHH: EVQLLESGGGLVQPGGSLRLSCAASGFRISDEDMGWVRQAPGKGLEWVSSIYGPSGSTYYADSVKGRFTISRDNSKNTLYLQMNSLRAEDTAVYYCASALEPLSEPLGFWGQGTLVTVSS
modifications: HiPEG val-cit-PAB-MMAE attached via the C-terminal His6-tag
As to B9, the “Mean IC50, cytotoxicity on DU145 PSMA cells, 48 h” value in assay [19] is greater than 300 nM. For the same molecule, in assay [20], the “IC50 (nM), PSMA-DU145 cytotoxicity assay (72 h)” value is greater than 100 nM and the “IC50 (toxin) (nM), PSMA-DU145 cytotoxicity assay (72 h)” value is greater than 100 nM.
